The source of these data is patent publication US20230257791A1.

pKd: −log10 of the molar value.

This test addresses recombinant gp140 from the clade C strain 92BR025 (HIV antigen), Sino Biological, Inc. (HIV, clade C strain 92BR025). The test can be described thus: SPR, Biacore T200; gp140 immobilized, GRFT as analyte at 12.5-400 nM; heterogeneous ligand model; mean ± SD of replicates.

Sequence of recombinant gp140 from the clade C strain 92BR025 (HIV antigen), Sino Biological, Inc. (HIV, clade C strain 92BR025) (O12164 32-677): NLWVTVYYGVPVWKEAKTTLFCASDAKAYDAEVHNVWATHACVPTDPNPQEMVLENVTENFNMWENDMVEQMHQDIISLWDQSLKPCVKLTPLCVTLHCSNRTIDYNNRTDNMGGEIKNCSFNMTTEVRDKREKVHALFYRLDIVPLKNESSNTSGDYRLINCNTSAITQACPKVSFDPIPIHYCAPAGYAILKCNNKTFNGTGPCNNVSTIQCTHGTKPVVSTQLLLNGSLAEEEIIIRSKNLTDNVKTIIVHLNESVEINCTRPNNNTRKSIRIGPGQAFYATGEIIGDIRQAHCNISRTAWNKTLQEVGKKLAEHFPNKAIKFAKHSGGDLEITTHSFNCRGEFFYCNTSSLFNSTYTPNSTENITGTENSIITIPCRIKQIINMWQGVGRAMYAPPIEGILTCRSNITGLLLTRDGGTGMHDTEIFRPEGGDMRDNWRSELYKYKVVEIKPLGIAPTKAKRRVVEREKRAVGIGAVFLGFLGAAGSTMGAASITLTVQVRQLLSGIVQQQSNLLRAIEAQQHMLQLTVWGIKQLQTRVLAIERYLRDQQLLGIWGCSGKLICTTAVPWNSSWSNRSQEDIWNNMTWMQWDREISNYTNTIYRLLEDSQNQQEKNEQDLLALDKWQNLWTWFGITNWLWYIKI

In the case of “precipitation-purified Griffithsin (GRFT), recombinant, expressed in E. coli strain DLF_0025 from plasmid pHC-Kan-phoAp-GRFT (from UniProt P84801 1-121)”, the negative-log Kd (pKd) is 8.36.
